Consider three molecules from patent US20220348934A1, “NON-RIBOSOMAL PEPTIDES AND SYNTHETASES AND METHODS OF PREPARATION AND USE THEREOF” (VICTORIA LINK LIMITED, priority 2019, published 2022).

The test system of this assay is BAP1 strain of E. coli. The experiment in a line: Dipeptide production by Pro-CATTe A domain substitution constructs co-expressed with Phe-ATE, quantified by HPLC. It is filed as cell-based. As to conditions: BAP1 E. coli with Phe-ATE plasmid, grown 24 hours in 10 mL M9, absorbance at 214 nm; for D-Phe-L-Leu produced: upstream site X. An excerpt:
The Phe-ATE/Pro-CAT NRPS system originally used by Belshaw et al comprises the first two modules from the NRPS pathway involved in the biosynthesis of tyrocidine in B. brevis (Belshaw et al. 1999). This two-enzyme system was used to infer stringent acceptor site specificity of the C domain within Pro-CAT that precluded incorporation of L-Leu and L-Phe substrates (Belshaw et al. 1999). An A domain substitution plasmid was made based on pET28a containing the C domain from Pro-CAT, restriction sites to insert alternative A domains, and the T-Te domains from SrfAC (SEQ ID NO: 108). […] The Pro specific A domain from Pro-CAT and five additional A domains were selected to insert into the A domain substitution construct. The five additional domains are represented by SEQ ID NOs: 109, 111, 113, 115, 117, 119, and included the Leu specific A domain from SrfAC, three additional Leu specific A domains and a Phe specific A domain.
The DNA sequences of SEQ ID NOs: 109, 111, 113, 115, 117, 119, were digested using NheI and NotI, then ligated into the compatible SpeI and NotI restriction sites of the vector pET28:ProC-TTe (SEQ ID NO: 108). The resulting Pro-CATTe constructs were transformed into a BAP1 strain of E. coli (Pfeifer et al. 2001) along with a second plasmid containing Phe-ATE (SEQ ID NO: 121). The strains were grown for 24 hours in 10 mL of M9, extracted and analysed using established protocols (Gruenewald et al. 2004). The production of dipeptides was quantified using HPLC and absorbance at 214 nm (FIG. 13), and confirmed using mass spectrometry.

B1: control Pro A domain substitution strain: Pro-CATTe construct carrying the Pro specific A domain from Pro-CAT (TycB module 1), control substitution (protein)
chain: LAGHLQQIADCVANNSGVELCQIPLLTEAETSQLLAKRTETAADYPAATMHELFSRQAEKTPEQVAVVFADQHLTYRELDEKSNQLARFLRKKGIGTGSLVGTLLDRSLDMIVGILGVLKAGGAFVPIDPELPAERIAYMLTHSRVPLVVTQNHLRAKVTTPTETIDINTAVIGEESRAPIESLNQPHDLFYIIYTSGTTGQPKGVMLEHRNMANLMHFTFDQTNIAFHEKVLQYTTCSFDVCYQEIFSTLLSGGQLYLITNELRRHVEKLFAFIQEKQISILSLPVSFLKFIFNEQDYAQSFPRCVKHIITAGEQLVVTHELQKYLRQHRVFLHNHYGPSETHVVTTCTMDPGQAIPELPPIGKPISNTGIYILDEGLQLKPEGIVGELYISGANVGRGYLHQPELTAEKFLDNPYQPGERMYRTGDLALWLPDGQLEFLGRIDHQVKIRGHRIELGEIESRLLNHPAIKEAVVIDRADETGGKFLCAYVVLQKALSDEEMRAYLAQALPEYMIPSFFVTLERIPVTPNGKTDRRALPKPE
Regarding B1, the “D-Phe-L-Pro DKP synthesised” value came out at 7.8 mg/L.

B2: A domain from SrfAC: Pro-CATTe construct with the Leu specific A domain from SrfAC substituted (protein)
chain: LAGHLQQIADCVANNPDQPVSTINLVDDREREFLLTGLNPPAQAHETKPLTYWFKEAVNANPDAPALTYSGQTLSYRELDEEANRIARRLQKHGAGKGSVVALYTKRSLELVIGILGVLKAGAAYLPVDPKLPEDRISYMLADSAAACLLTHQEMKEQAAELPYTGTTLFIDDQTRFEEQASDPATAIDPNDPAYIMYTSGTTGKPKGNITTHANIQGLVKHVDYMAFSDQDTFLSVSNYAFDAFTFDFYASMLNAARLIIADEHTLLDTERLTDLILQENVNVMFATTALFNLLTDAGEDWMKGLRCILFGGERASVPHVRKALRIMGPGKLINCYGPTEGTVFATAHVVHDLPDSISSLPIGKPISNASVYILNEQSQLQPFGAVGELCISGMGVSKGYVNRADLTKEKFIENPFKPGETLYRTGDLARWLPDGTIEYAGRIDDQVKIRGHRIELEEIEKQLQEYPGVKDAVVVADRHESGDASINAYLVNRTQLSAEDVKAHLKKQLPAYMVPQTFTFLDELPLTTNGKVNKRLLPKPD
For B2, the D-Phe-L-Leu produced is on record as 1.81 mg/L.

B3: A domain from TycC6: Pro-CATTe construct with the Leu specific A domain from the sixth module of TycC substituted (protein)
chain: LAGHLQQIADCVANNPHIRLGEIDMLLPEEKQQILAGFNDTAVSYALDKTLHQLFEEQVDKTPDQAALLFSEQSLTYSELNERANRLARVLRAKGVGPDRLVAIMAERSPEMVIGILGILKAGGAYVPVDPGYPQERIQYLLEDSNAALLLSQAHLLPLLAQVSSELPECLDLNAELDAGLSGSNLPAVNQPTDLAYVIYTSGTTGKPKGVMIPHQGIVNCLQWRRDEYGFGPSDKALQVFSFAFDGFVASLFAPLLGGATCVLPQEAAAKDPVALKKLMAATEVTHYYGVPSLFQAILDCSTTTDFNQLRCVTLGGEKLPVQLVQKTKEKHPAIEINNEYGPTENSVVTTISRSIEAGQAITIGRPLANVQVYIVDEQHHLQPIGVVGELCIGGAGLARGYLNKPELTAEKFVANPFRPGERMYKTGDLVKWRTDGTIEYIGRADEQVKVRGYRIEIGEIESAVLAYQGIDQAVVVARDDDATAGSYLCAYFVAATAVSVSGLRSHLAKELPAYMIPSYFVELDQLPLSANGKVDRKALPKPQ
In turn, B3 gave a D-Phe-L-Leu produced of 3.06 mg/L.
